Values quoted from earlier work as cited in patent US20040096894A1, “Crystal structures of P- selectin, P- and E-selectin complexes, and uses thereof” (priority 2000, published 2004).

Target: T1, full-length neutrophil PSGL-1 (Homo sapiens, UniProt Q14242)
T1 construct: to full-length neutrophil PSGL-1; host or cells: neutrophils
T1 sequence (Q14242 42-412): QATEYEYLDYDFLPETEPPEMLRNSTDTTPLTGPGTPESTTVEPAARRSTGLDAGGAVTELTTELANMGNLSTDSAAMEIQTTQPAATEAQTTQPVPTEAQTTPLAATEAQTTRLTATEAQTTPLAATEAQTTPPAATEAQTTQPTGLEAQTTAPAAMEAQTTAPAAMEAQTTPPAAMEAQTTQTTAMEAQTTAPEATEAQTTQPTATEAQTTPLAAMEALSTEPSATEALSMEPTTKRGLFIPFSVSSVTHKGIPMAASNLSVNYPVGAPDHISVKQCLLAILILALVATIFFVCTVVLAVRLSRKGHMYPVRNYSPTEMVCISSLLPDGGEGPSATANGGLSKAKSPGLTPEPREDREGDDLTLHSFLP
Details: previously determined values (Mehta et al., 1998); read-out: KD for binding to full-length neutrophil PSGL-1

Kd: 322 nM
B1: soluble P-selectin: Soluble P-selectin of the literature study (Mehta et al., 1998) (protein, UniProt P16109 42-771, looked up)
extracellular domain: WTYHYSTKAYSWNISRKYCQNRYTDLVAIQNKNEIDYLNKVLPYYSSYYWIGIRKNNKTWTWVGTKKALTNEAENWADNEPNNKRNNEDCVEIYIKSPSAPGKWNDEHCLKKKHALCYTASCQDMSCSKQGECLETIGNYTCSCYPGFYGPECEYVRECGELELPQHVLMNCSHPLGNFSFNSQCSFHCTDGYQVNGPSKLECLASGIWTNKPPQCLAAQCPPLKIPERGNMTCLHSAKAFQHQSSCSFSCEEGFALVGPEVVQCTASGVWTAPAPVCKAVQCQHLEAPSEGTMDCVHPLTAFAYGSSCKFECQPGYRVRGLDMLRCIDSGHWSAPLPTCEAISCEPLESPVHGSMDCSPSLRAFQYDTNCSFRCAEGFMLRGADIVRCDNLGQWTAPAPVCQALQCQDLPVPNEARVNCSHPFGAFRYQSVCSFTCNEGLLLVGASVLQCLATGNWNSVPPECQAIPCTPLLSPQNGTMTCVQPLGSSSYKSTCQFICDEGYSLSGPERLDCTRSGRWTDSPPMCEAIKCPELFAPEQGSLDCSDTRGEFNVGSTCHFSCDNGFKLEGPNNVECTTSGRWSATPPTCKGIASLPTPGVQCPALTTPGQGTMYCRHHPGTFGFNTTCYFGCNAGFTLIGDSTLSCRPSGQWTAVTPACRAVKCSELHVNKPIAMNCSNLWGNFSYGSICSFHCLEGQLLNGSAQTACQENGHWSTTVPTCQAGPLTIQEA
modifications: extracellular domain
